Usually Kd stands for a measure of binding affinity in units of concentration.

The values below come from patent US20220396627A1 (VERSEAU THERAPEUTICS, published 2022).

Assay [1] concerns the target T1, Recombinant human Siglec-9-His (human, UniProt Q9Y336 18-348).
T1 construct: The entry begins at QTSK... like the Q18-G348 extracellular domain of the Fc fusion and ends in GSG and a His tag
As to the kind of experiment: BLI (Octet Red384), chimeric antibody on AHC sensor, His-tagged analyte 100-1.56 nM, 1:1 global fit. How it is done: (§1) The binding affinity of chimeric antibodies was determined by biolayer interferometry (BLI), using a ForteBio Octet Red384 system. All samples were prepared in black 96-well flat bottom plates (Greiner, Cat. #655209) diluted in kinetics buffer (lx DPBS (Gibco, Cat. #LS14190250) containing 0.1% bovine serum albumin, 0.05% sodium azide, and 0.02% Tween®20). Anti-SIGLEC-9 antibodies (ligand) were diluted to a final concentration of 10 ug/mL and captured on anti-human IgG Fc capture (AHC) biosensors (ForteBio, Cat. #18-5060). […] Biosensors were rehydrated prior to the assay in kinetics buffer for 10 minutes and then equilibrated in kinetics buffer for 60 seconds. Antibody was then immobilized for 300 seconds followed by a 120 second baseline wash in fresh kinetics buffer, 300 second analyte association, and 300 second dissociation in the same buffer wells as the baseline wash step. All assay steps occurred at 30° C. with an acquisition rate of 5.0 Hz
(§2) Processing parameters included double reference subtraction, with human IgG4 used as an isotype control for reference sensor subtraction and immobilized ligand in kinetics buffer with no analyte used for reference sample subtraction. Y-axis data was aligned to the average baseline step for the last 5 seconds and all steps were inter-step corrected to the start of the dissociation step. High frequency noise was removed using Savitzky-Golay filtering and final fitting was a 1:1 global binding model to both association and dissociation.
Background: In BLI a coated tip is dipped into the sample, and binding shifts an interference pattern.

Assay [2] concerns the target T2, Recombinant cyno Siglec-9-His (cynomolgus macaque).
T2 construct: also called Cynomolgus Monkey SIGLEC9-HIS
The description is as above. How it is done:
as §1, §2

Assay [3] addresses T3, Recombinant human Siglec-7-His (human, UniProt Q9Y286 19-353, limits assumed). Described as above. The protocol: as §1, §2
Assay [4] has as its target T2, Recombinant cyno Siglec-9-His. As to the kind of experiment: BLI (Octet Red384), chimeric antibody on AHC sensor, His-tagged analyte. The protocol: as §1, §2
Assay [5] has as its target T3, Recombinant human Siglec-7-His. The assay is described as above. The protocol:
as §1, §2

Assay [6] deals with Human Siglec-9-Fc (recombinant human Siglec-9 extracellular domain Q18-G348 fused to human IgG1 Fc) (human). Description: ELISA: plate coated with 1 ug/mL human Siglec-9-Fc, antibody at 100 nM, HRP anti-mouse Fc secondary, RLU. How it is done: ELISA plates (384-well) were coated with 1 ug/mL indicated SIGLEC protein at room temperature. The plates were washed with PBS with 0.1% Tween®20, pH 7.4 and blocked with TBS containing 3% BSA. The plates were washed and incubated with anti-SIGLEC9 antibody diluted to 100 nM. Plates were washed and incubated with HRP-coupled anti-mouse Fc secondary antibody. Plates underwent a final wash and were incubated with HRP substrate. Readout was performed using a POLARstar Omega Microplate Reader (BMG LAPTECH).
Chain of Human Siglec-9-Fc (recombinant human Siglec-9 extracellular domain Q18-G348 fused to human IgG1 Fc) (human) (chain, as listed by the source limits assumed): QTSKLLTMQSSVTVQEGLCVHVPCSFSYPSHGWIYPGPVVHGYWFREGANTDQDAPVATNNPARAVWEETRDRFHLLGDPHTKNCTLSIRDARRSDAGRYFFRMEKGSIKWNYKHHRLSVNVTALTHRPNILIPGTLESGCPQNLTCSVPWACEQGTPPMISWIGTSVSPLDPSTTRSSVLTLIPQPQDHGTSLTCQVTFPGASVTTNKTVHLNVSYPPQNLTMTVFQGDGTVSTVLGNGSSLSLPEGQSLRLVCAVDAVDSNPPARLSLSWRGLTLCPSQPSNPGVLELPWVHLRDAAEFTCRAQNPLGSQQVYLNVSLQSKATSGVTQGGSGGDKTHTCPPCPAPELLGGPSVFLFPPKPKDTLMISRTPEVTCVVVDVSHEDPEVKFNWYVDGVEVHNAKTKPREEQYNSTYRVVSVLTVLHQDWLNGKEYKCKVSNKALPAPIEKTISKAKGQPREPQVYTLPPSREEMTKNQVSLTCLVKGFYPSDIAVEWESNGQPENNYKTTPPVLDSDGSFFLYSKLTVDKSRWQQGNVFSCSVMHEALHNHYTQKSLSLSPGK
On the technique in general: In an ELISA, binding on a coated surface is turned into a signal by an enzyme label.

T2 sequence (chain, as listed by the source limits assumed): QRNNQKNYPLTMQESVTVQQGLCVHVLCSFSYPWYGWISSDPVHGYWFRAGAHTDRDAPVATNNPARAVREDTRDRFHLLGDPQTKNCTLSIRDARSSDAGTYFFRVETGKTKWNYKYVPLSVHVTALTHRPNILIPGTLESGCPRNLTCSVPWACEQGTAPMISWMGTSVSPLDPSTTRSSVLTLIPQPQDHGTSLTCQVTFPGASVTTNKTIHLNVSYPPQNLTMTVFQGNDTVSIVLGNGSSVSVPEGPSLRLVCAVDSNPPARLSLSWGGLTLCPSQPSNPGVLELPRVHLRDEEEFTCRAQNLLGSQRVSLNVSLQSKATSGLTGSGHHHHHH
T1 sequence (Q9Y336 other isoform, or with tags, fused parts or gaps limits assumed): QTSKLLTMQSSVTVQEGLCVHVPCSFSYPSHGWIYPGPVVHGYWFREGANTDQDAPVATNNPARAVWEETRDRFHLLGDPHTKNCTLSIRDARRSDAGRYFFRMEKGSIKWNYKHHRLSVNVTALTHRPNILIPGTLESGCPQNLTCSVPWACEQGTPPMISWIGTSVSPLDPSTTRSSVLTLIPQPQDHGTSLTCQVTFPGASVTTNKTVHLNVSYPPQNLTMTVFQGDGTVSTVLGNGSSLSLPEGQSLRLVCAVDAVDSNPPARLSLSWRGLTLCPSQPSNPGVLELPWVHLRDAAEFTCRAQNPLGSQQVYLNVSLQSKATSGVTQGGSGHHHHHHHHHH
T3 sequence (Q9Y286 19-353 limits assumed): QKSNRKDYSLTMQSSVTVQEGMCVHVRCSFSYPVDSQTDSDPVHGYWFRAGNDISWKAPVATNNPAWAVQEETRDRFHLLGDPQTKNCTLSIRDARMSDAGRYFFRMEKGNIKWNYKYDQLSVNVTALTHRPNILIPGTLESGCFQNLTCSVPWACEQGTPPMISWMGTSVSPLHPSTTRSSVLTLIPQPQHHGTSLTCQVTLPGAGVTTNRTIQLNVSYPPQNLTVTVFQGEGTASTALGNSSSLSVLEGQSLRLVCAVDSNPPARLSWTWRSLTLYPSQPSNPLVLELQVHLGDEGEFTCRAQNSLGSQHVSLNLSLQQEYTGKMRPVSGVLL

B1: 13J19 mouse/human chimeric antibody (human IgG4 S228P, kappa) (antibody, V domains shown)
VH: QVQLKESGPGLVAPSQSLSITCTVSGFSLTSYGVSWVRQPPGKGLEWLGVVWRDGTTNYHSALISRLSISKDNSKSQVFLKLNSLQTDDTATYYCARPYYGFFDYWGQGTTLTVSS
VL: SIVMTQTPKFLLVSAGDRVTVTCKASQSVSNAVAWYQQKPGQSPKLLIYYASNRYTGVPDRFTGSGYGTDFTFTISTVQAEDLAVYFCQQNYNSPYTFGGGTKLEIKR
notes: 13J19 is deposited as ATCC PTA-125945
With B1, the Kd is 2.1 pM in assay [1], 6.8 pM in assay [2] and 20000 pM in assay [3].

B2: 13H10 mouse/human chimeric antibody (human IgG4 S228P, kappa) (antibody, V domains shown)
VH: QVQLQQPGAELVKPGASVKLSCKASGYTFTSYWMYWVKQRPGQGLDLIGEINPSNGGTNYNEKFKSKATLTVDKSSGTAYMQLSSLTSEDSAVYYCAIWKDYYGISYEDWYFDVWGTGTTVTVSS
VL: DILLTQSPAILSVSPGERVSFSCRASQSIGTSIHWYQQRTNGSPRLLIKYASESISGIPSRFSGSGSGTDFTLSINSVESEDIADYYCQQSNSWPLTFGAGTKLELKR
notes: 13H10 is deposited as ATCC PTA-125944
Regarding B2, the Kd in assay [1] is 2.6 pM. In addition, the binding result in assay [4] and in assay [5] was “no binding (tested: analyte titrated from 100 nM to 1.56 nM)” in each case.

B3: 2E23 (antibody, V domains shown)
VH: QVQLQQPGAELVKPGASVKLSCKASGYTFTSYWMHWVKQRPGQGLEWIGEINPSNGGTNYNEKFKSKATLTVDKSSSTAYMQLSSLTSEDSAVYYCTIYYGDYSYPIDYWGQGTSVTVSS
VL: QIVLTQSPAIMSASPGEKVTLTCSASSSVSSSYLYWYQQKPGSSPKLWIYSTSNLASGVPTRFSGSGSGTSYCLTISSMETEDAASYFCHQYSSYPFTFGSGTKLEIK
For B3, the binding result in assay [6] was “binds”.

B4: 3L02 mouse/human chimeric antibody (human IgG4 S228P, kappa) (antibody, V domains shown)
VH: DVQLQESGPGMVKPSQSLSLTCTVTGYSITSGYDWHWIRHFPGNKLEWMGYISYSAGTNYNPSLKSRISITHDTSKNHFFLKLNSVTTEDTATYYCAREGLTAYWYFDVWGTGTTVTVSS
VL: DIVMTQSQKFMSTSVGDRVSVTCKASQTVGTNVAWYQQKPGQSPKPLIYSASYRYSGVPDRFTGSGSGTDFTLTISNVQSEDLAEYFCQQYDSFPLTFGSGTKLEIKR
With B4, the Kd in assay [1] turned out to be 4.4 pM. For the same molecule, the binding result in assay [4] and in assay [5] was “no binding (tested: analyte titrated from 100 nM to 1.56 nM)” in each case.
